This is an account of results in US20240376170A1 (BRIGHT PEAK THERAPEUTICS, published 2024).

Broadly, the Kd is the free concentration of one partner at which half of the binding sites on the other are occupied at equilibrium, for simple one-to-one binding. One may read the koff as the rate constant with which the complex falls apart. A word on the kon: it is a measure of how fast the partners come together.

Bridges are numbered along the chain shown (N, C = ends). Primed or numbered codes have the meaning given here. [ ]: non-standard residue; d: D form. Ygp(4) = Tyr with amino-capped PEG8 (O-(8x polyethylene glycol-amino)-tyrosine); Yn3(4) = Tyr with azide-capped PEG9 (O-(9x polyethylene glycol-azido)-tyrosine); Ygp = O-(8x polyethylene glycol-amino)-tyrosine (Tyr, amino-capped PEG8); Yn3 = O-(9x polyethylene glycol-azido)-tyrosine (Tyr, azide-capped PEG9); Ygp(3) = O-(PEG8-amino)-tyrosine; Yn3(3) = O-(PEG9-azido)-tyrosine; PEG4′ = 4x polyethylene glycol; PEG9′ = 9x polyethylene glycol; hSer = N[C@@H](CCO)C(=O)O; Nle = CCCC[C@H](N)C(=O)O

Test [1] addresses T1, recombinant human IL-2 receptor beta containing a His-tag and Avi-tag (human, UniProt P14784 27-239).
T1 construct: Bought; attached to the SAX2 biosensor; also called CD122; IL-2R β; not shown: His-tag and Avi-tag
T1 sequence (looked up): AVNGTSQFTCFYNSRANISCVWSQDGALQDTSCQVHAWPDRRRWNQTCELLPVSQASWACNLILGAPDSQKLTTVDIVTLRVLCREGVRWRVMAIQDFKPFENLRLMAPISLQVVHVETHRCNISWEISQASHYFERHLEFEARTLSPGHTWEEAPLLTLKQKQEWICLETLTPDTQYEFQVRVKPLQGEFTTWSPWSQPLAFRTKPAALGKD
Description: BLI (Octet R8), receptor on SAX2 sensor. On the procedure:
(§1) Bilayer interferometry (BLI) assays were used to measure the binding constants between activatable IL-2 polypeptides (and activated versions thereof) to IL-2 receptor subunits or receptor complexes. BLI assays were conducted on an Octet® R8 instrument. Assay plates were 96 well, polypropylene, F-bottom (chimney well), black microplates (Greiner Bio-one, Cat. No: 655209). The biosensors were Octet® SAX2 (Sartorius, Cat. No: 18-5136). The assay buffer was 1X Kinetic Buffer (Sartorius, Cat. no: 18-5136) or Phosphate Buffered Saline (PBS) that contained 0.02% (v: v) Tween 20 (Polysorbate 20) and 0.1% (w/v) bovine serum albumin (BSA). The sensor was regenerated between measurements in 10 mM glycine pH 2.7 buffer.
(§2) Sensor attached receptors were either recombinant human IL-2 receptor beta containing a His-tag and Avi-tag™ (R&D Systems™) or an Avi-tag™ Fc with human IL-2R beta and IL-2R gamma attached (Acrobiosystems Cat. no: ACRB-ILG-H₈₂F3-25UG). Receptors were reconstituted from lyophilized powder to 500 μg/ml in PBS. Analytes were diluted in Kinetic buffer to 300 nM, then serially diluted to lower concentrations.

Test [2] deals with T2, Avi-tag Fc with human IL-2R beta and IL-2R gamma attached (Acrobiosystems ACRB-ILG-H82F3-25UG) (human, UniProt P14784 27-239; P31785 23-262).
T2 construct: Bought; attached to the SAX2 biosensor; also called CD122 CD132; IL-2R βγ; not shown: Fc and Avi-tag
T2 sequence (looked up) 1: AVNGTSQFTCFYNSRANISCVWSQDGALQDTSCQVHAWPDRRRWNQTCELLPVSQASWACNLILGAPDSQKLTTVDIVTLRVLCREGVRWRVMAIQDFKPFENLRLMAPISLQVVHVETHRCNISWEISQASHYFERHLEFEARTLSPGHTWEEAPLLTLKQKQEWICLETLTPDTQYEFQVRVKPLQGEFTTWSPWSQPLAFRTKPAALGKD
T2 sequence (looked up) 2: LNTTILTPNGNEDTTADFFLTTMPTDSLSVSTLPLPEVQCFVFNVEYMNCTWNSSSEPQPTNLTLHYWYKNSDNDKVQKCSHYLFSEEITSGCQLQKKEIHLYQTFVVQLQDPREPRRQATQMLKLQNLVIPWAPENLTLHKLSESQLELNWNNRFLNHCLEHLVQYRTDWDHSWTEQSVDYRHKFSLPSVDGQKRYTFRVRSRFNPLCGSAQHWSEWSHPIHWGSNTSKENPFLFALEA
Description: BLI (Octet R8), receptor on SAX2 sensor. On the procedure:
as §1, §2
For orientation: In BLI a coated tip is dipped into the sample, and binding shifts an interference pattern.

Test [3] deals with T3, IL-2 receptor βγ complex (human, UniProt P14784 27-551; P31785 23-369).
T3 sequence (looked up) 1: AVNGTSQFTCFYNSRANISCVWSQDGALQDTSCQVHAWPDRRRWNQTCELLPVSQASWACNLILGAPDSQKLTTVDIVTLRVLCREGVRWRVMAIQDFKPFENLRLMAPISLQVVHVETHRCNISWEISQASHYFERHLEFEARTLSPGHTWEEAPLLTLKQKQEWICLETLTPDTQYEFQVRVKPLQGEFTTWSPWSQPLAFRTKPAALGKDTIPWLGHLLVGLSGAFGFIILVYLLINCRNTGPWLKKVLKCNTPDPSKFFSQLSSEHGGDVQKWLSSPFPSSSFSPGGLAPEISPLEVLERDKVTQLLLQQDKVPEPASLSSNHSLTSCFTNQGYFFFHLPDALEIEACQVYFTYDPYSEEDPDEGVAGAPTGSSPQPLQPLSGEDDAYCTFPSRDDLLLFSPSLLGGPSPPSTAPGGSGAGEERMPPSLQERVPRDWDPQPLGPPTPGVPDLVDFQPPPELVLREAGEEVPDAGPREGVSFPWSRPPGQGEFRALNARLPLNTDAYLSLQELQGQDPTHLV
T3 sequence (looked up) 2: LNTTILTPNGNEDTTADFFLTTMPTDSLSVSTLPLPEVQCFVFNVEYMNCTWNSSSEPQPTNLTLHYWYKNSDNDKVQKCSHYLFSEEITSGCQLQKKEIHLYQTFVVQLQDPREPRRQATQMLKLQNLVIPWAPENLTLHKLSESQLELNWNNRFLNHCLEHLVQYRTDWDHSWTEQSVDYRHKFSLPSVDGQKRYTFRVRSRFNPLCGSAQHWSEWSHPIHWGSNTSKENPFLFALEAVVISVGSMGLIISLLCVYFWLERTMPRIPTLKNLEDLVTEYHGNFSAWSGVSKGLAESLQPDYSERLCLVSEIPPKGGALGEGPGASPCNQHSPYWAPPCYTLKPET
Description: cell-based or functional assay.

Test [4] deals with T3, IL-2 receptor βγ complex. Description: cell-based or functional assay. This is another data set of the same source.

B1: CMP-138 (ligand)
chain: [PEG4′]SGGPGPAGMKGLPGS[PEG4′]APTSSSTKKTQLQLEHLLLDLQ[Nle]ILNGIENYKNPKLTR[Nle]L[hSer][Yn3(3)]KF[Ygp(3)][Nle]PKKATELKHLQCLEEELKPLEEVL[hSer]LAQSKNFHLRPRDLISNINVIVLELKGSETTF[hSer]CEYADETATIVEFLNRWITFSQSIISTLT
modifications: bridge (positions not given here); not fully specified (bridges); numbers in words are those of the source; also: Cys58-Cys105 disulfide expected from oxidative folding
In the case of B1, in test [1], the Kd came to 11.7 nM, the koff is 0.0105 s⁻¹ and the kon was found to be 898000 M⁻¹ s⁻¹. Further, in test [2], the Kd was determined as 12.3 nM, the koff came out at 0.00284 s⁻¹ and the on-rate constant (kon) came out at 232000 M⁻¹ s⁻¹.

B2: CMP-304 (ligand)
chain: PLGLAGAPTSSSTKKTQLQLEHLLLDLQEILNGINNYKNPKLTR[Nle]L[hSer][Yn3(4)]KF[Ygp(4)][Nle]PKKATELKHLQCLEEELKPLEEVL[hSer]LAQSKNFHLRPRDLISNINVIVLELKGSETTF[hSer]CEYADETATIVEFLNRWITFSQSIISTLT
modifications: bridge N-29; not fully specified (N-terminus, bridges); ends not checked
As for B2, the “Average EC50, pSTAT5 Assay (T cells)” value with IL-2 receptor βγ complex [3] came to 110 nM.

B3: CMP-300 (ligand)
chain: GPLGLAG[PEG4′]APTSSSTKKTQLQLEHLLLDLQEILNGINNYKNPKLTR[Nle]L[hSer][Yn3(4)]KF[Ygp(4)][Nle]PKKATELKHLQCLEEELKPLEEVL[hSer]LAQSKNFHLRPRDLISNINVIVLELKGSETTF[hSer]CEYADETATIVEFLNRWITFSQSIISTLT
modifications: lactam N-31; ends not checked
B3: the “Average EC50, pSTAT5 Assay (T cells)” value with IL-2 receptor βγ complex [3] was 94.7 nM. In addition, the “Average EC50, pSTAT5 Assay in NK cells” value with IL-2 receptor βγ complex [4] turned out to be 38.1 nM.

B4: CMP-168, MMP2 cleaved molecule (ligand)
chain: APTSSSTKKTQLQLEHLLLDLQEILNGINNYKNPKLTR[Nle]L[hSer][Yn3(4)]KF[Ygp(4)][Nle]PKKATELKHLQCLEEELKPLEEVL[hSer]LAQSKNFHLRPRDLISNINVIVLELKGSETTF[hSer]CEYADETATIVEFLNRWITFSQSIISTLT
modifications: not fully specified; ends and bridges not checked; also: MMP2 cleaved, cleavage site and linker fragments on Lys9 and Glu23 side chains not given here
Consider B4, for which the “Average EC50, pSTAT5 Assay (T cells)” value in the test with IL-2 receptor βγ complex [3] worked out at 6.3 nM. Besides, in the test with IL-2 receptor βγ complex [4], the “Average EC50, pSTAT5 Assay in NK cells” value amounted to 0.981 nM.

B5: CMP-302 (ligand)
chain: GPLGLAGAPTSSSTKKTQLQLEHLLLDLQEILNGINNYKNPKLTR[Nle]L[hSer][Yn3(4)]KF[Ygp(4)][Nle]PKKATELKHLQCLEEELKPLEEVL[hSer]LAQSKNFHLRPRDLISNINVIVLELKGSETTF[hSer]CEYADETATIVEFLNRWITFSQSIISTLT
modifications: lactam N-30; ends not checked
For B5, in the test with IL-2 receptor βγ complex [3], the “Average EC50, pSTAT5 Assay (T cells)” value was 63.4 nM.

B6: CMP-305 (ligand)
chain: APTSSSTKKTQLQLEHLLLDLQKILNGINNYKNPKLTR[Nle]L[hSer][Yn3]KF[Ygp][Nle]PKKATELKHLQCLEEELKPLEEVL[hSer]LAQSKNFHLRPRDLISNINVIVLELKGSETTF[hSer]CEYADETATIVEFLNRWITFSQSIISTLT
modifications: bridge 15-23; not fully specified (bridges); also: further groups not given here
With B6, the “Average EC50, pSTAT5 Assay (T cells)” value in the test with IL-2 receptor βγ complex [3] was 128 nM.

B7: CMP-305, MMP2 cleaved molecule (ligand)
chain: APTSSSTKKTQLQLEHLLLDLQKILNGINNYKNPKLTR[Nle]L[hSer][Yn3]KF[Ygp][Nle]PKKATELKHLQCLEEELKPLEEVL[hSer]LAQSKNFHLRPRDLISNINVIVLELKGSETTF[hSer]CEYADETATIVEFLNRWITFSQSIISTLT
modifications: also: m29 after MMP2 cleavage: Glu15-Lys23 cleavable peptide bridge cut, remnants on Glu15 and Lys23 not given here
As for B7, the “Average EC50, pSTAT5 Assay (T cells)” value with IL-2 receptor βγ complex [3] came out at 3.26 nM.

B8: CMP-136 (ligand)
chain: [PEG9′]PLGLAG[PEG9′]APTSSSTKKTQLQLEHLLLDLQ[Nle]ILNGIENYKNPKLTR[Nle]L[hSer][Yn3]KF[Ygp][Nle]PKKATELKHLQCLEEELKPLEEVL[hSer]LAQSKNFHLRPRDLISNINVIVLELKGSETTF[hSer]CEYADETATIVEFLNRWITFSQSIISTLT
modifications: bridge N-37; not fully specified (bridges)
With B8, in test [1], the Kd worked out at 8.44 nM, the koff was 0.00767 s⁻¹ and the kon was 909000 M⁻¹ s⁻¹. For the same molecule, in test [2], the Kd came to 12.6 nM, the koff was found to be 0.00498 s⁻¹ and the kon worked out at 396000 M⁻¹ s⁻¹.

B9: CMP-303 (ligand)
chain: PLGLAGAPTSSSTKKTQLQLEHLLLDLQEILNGINNYKNPKLTR[Nle]L[hSer][Yn3(4)]KF[Ygp(4)][Nle]PKKATELKHLQCLEEELKPLEEVL[hSer]LAQSKNFHLRPRDLISNINVIVLELKGSETTF[hSer]CEYADETATIVEFLNRWITFSQSIISTLT
modifications: bridge N-29; not fully specified (N-terminus, bridges); ends not checked
For B9, the “Average EC50, pSTAT5 Assay (T cells)” value with IL-2 receptor βγ complex [3] is 97.9 nM.

B10: CMP-300, MMP2 cleaved molecule (ligand)
chain: APTSSSTKKTQLQLEHLLLDLQEILNGINNYKNPKLTR[Nle]L[hSer][Yn3(4)]KF[Ygp(4)][Nle]PKKATELKHLQCLEEELKPLEEVL[hSer]LAQSKNFHLRPRDLISNINVIVLELKGSETTF[hSer]CEYADETATIVEFLNRWITFSQSIISTLT
modifications: not fully specified; ends and bridges not checked; also: cleaved by MMP2, product not given here, N-terminus linked to another sequence via PEG4, Glu23 side chain linked to another sequence
With B10, the “Average EC50, pSTAT5 Assay (T cells)” value in the test with IL-2 receptor βγ complex [3] stood at 1.73 nM. Moreover, the “Average EC50, pSTAT5 Assay in NK cells” value with IL-2 receptor βγ complex [4] was determined as 0.379 nM.

B11: CMP-168 (ligand)
chain: APTSSSTKKTQLQLEHLLLDLQEILNGINNYKNPKLTR[Nle]L[hSer][Yn3(4)]KF[Ygp(4)][Nle]PKKATELKHLQCLEEELKPLEEVL[hSer]LAQSKNFHLRPRDLISNINVIVLELKGSETTF[hSer]CEYADETATIVEFLNRWITFSQSIISTLT
modifications: bridge 9-23; not fully specified (bridges); ends not checked; also: sequence of the cleavable bridging peptide not given here
In the case of B11, in the test with IL-2 receptor βγ complex [3], the “Average EC50, pSTAT5 Assay (T cells)” value worked out at 144 nM. For the same molecule, in the test with IL-2 receptor βγ complex [4], the “Average EC50, pSTAT5 Assay in NK cells” value was determined as 53.9 nM.
